Results taken from patent publication US20230071609A1 (Genentech, published 2023).

Key:
[1] = target: T1, endogenous human APOL1 (wild-type immortalized podocytes; also JHH-1 cells, kidney and liver tissue) (human, UniProt O14791 28-398); test: summary of the Examples: podocyte flow cytometry
T1 construct: whole, on cells; Cell or tissue and permeabilization are told under assay; also called podocyte APOL1; endogenous APOL1
T1 sequence (looked up): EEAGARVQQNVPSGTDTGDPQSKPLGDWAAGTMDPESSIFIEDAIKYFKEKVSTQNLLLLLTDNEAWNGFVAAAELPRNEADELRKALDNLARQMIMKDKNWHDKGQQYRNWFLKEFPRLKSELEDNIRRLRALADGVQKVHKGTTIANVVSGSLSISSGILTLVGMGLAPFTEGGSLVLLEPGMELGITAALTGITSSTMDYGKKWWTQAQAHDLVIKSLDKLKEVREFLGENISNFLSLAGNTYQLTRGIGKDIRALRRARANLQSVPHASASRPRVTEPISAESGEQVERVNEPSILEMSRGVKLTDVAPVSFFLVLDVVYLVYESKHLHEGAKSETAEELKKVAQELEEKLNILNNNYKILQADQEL
Description: Cells were harvested with 5 mM EDTA in PBS, washed once with growth media and twice with PBS. Approximately 0.5×10⁶/m1 of cells resuspended in PBS were incubated with anti-APOL1 antibodies for 1 h on ice. Following two PBS washes, 2 μg/ml of Alexa488 anti-mouse or anti-rabbit (Invitrogen A11029 and A21206, respectively) was used for 1 h on ice for detection. Cells were washed twice in PBS and resuspended in PBS with 1 μg/ml propidium iodide. Signals were read in a FACSCalibur3 (Becton Dickinson), with the exception of FIG. 8A and FIG. 14, which used a FACSCelesta, and data was analyzed using FlowJo v8.4.5. Mean fluorescence intensities were plotted in PRISM v7 after subtraction of secondary antibody alone background. For low pH experiments, cells were incubated with the antibodies in the presence of PBS pH 7.0 or PBS pH 5.5 for an hour on ice and detected with secondary antibodies at neutral pH.

[2] = target: T2, APOL6-myc-FLAG (human, UniProt Q9BWW8 1-343); test: immunofluorescence on transfected COS cells; grade
T2 construct: whole, on cells; In fixed, permeabilized transfected COS cells; untagged APOL6 in the western blots; not shown: C-terminal myc-FLAG tag
T2 sequence (looked up): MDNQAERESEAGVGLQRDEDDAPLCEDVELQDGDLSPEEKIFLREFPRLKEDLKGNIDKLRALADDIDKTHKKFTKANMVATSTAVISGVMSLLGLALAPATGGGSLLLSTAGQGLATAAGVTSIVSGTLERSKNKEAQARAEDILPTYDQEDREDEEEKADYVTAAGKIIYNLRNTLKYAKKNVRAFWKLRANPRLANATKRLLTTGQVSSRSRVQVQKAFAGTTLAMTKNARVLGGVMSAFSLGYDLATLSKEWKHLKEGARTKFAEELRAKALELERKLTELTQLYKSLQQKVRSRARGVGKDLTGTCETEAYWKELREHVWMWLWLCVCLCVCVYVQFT
Excerpt: COS cells were transfected as in FIG. 31A except APOL1 and APOL2 were also C-terminally myc-FLAG tagged. Overlays of APOL with epitope tags: either mouse anti-FLAG-M2 or mouse anti-myc 9E10 for anti-APOL1 rabmabs; or rabbit anti-Myc 71D10 in conjunction with mouse anti-APOL1. Signals indicate the two antibodies overlap (i.e. anti-APOL1 cross-reacts with that APOL); signals (epitope tag only) indicate no cross-reactivity. Alexa647 anti-rabbit or mouse were used for the tags to rule out the possibility that any colocalization was a bleed-through artifact. Sparsely transfected areas were imaged to permit evaluation of background staining in adjacent untransfected cells—DAPI nuclear staining identifies both untransfected and transfected cell nuclei. […] Note that none of the antibodies cross-reacted with the more distantly related APOL6. *, APOL2-myc-FLAG is presumably misfolded, since it is not as cross-reactive as untagged APOL2 (compare FIG. 31A) with several antibodies. Commercial antibodies are Sigma HPA018885, Epitomics EPR2907 (2) (Epito) and Proteintech 11486-2-AP (Ptech).
Cells were plated on LabTekII (Nalge Nunc 154534) slides and fixed at 70-100% confluency. For mAb screening, cells were fixed/permeabilized for 5 min in −20° C. methanol (EMD MX0485-6). For all other experiments, cells were fixed in 3% paraformaldehyde in PBS (EMS 15710) for 20 mins at room temperature, quenched with 50 mM NH₄Cl in PBS for 10 mins, then permeabilized with 0.1% TX-100 in PBS for 4 mins or for 1h in saponin buffer [0.4% saponin (Sigma S7900), 1% bovine serum albumin (BSA; Sigma A2153), 2% fetal bovine serum (Seradigm) in PBS]. First antibodies (stored sterile at 4° C.) were applied for 1 h at room temperature, at 1 μg/ml for screening on transfected cells or at subsequently optimized concentrations for detecting endogenous APOL1. After 3×10 min washes in PBS (for Methanol or TX-100 protocols) or saponin buffer (saponin protocol), secondary antibodies were applied at 1.88 μg/ml for 1 h at room temperature, washed 3× and mounted under No. 1.5 coverslips in ProLong Gold with DAPI (4′,6-diamidino-2-phenylindole; Life Technologies P36931).

| Binder | binding result [1] | binding result [2] |
| --- | --- | --- |
| antibody 4.12E5 (antibody, V domains shown, Mouse mAb, cloned as murine IgG2a LALAPG) VH: EVQLQQSGPELVKTGASVKISCKASGYSFTGYFMHWVKQSHGKSLEWIGYISCYNGASVYNQRFKGKATFTIDTSSSTAYMQFNSLTSEDSAVYYCARDVLRYPRYAVDYWGQGTSVTVSS VL: not shown | binds |  |
| antibody 3.6D12 (antibody, V domains shown, Mouse mAb (Method #3), cloned as murine IgG2a LALAPG; Early screens used hybridoma-purified antibody; also called mAb 3.6D12) VH: EVMLVESGGGLVRPGGSLKLSCTASGFTFSRCAMSWVRQTPEKRLEWVSAISRDSTYTYYSDSVKGRFTVSRDNAKNTLYLQMSSLRSEDTAMYYCARQIDDYYVDALDYWGQGTSVTVSS VL: DVQITQSPSYLAASPGETITINCRASKIISKYLAWYQEKPGKTIKLLIYSGFTLQSGIPSRFSGSGSGTDFTLTISSLEPEDFAMYYCQQHNEYPLTFGAGTKLEIKR |  | no binding (tested: 1 µg/ml) |
| antibody 4.17A5 (antibody, V domains shown, Mouse mAb (Method #4), cloned as murine IgG2a LALAPG; also called mAb 4.17A5) VH: QVQLQQSGPELLKPGASVKISCKGSGYAFSNSWINWVKLRPGQGLEWIGRIYPGDGDTKYNGKFKGKATLTADKSSSTAHMQLRSLTSVDSAVYFCARFPFGKYEGPGAMDYWGQGTSVTVSS VL: DIQMTQTTSSLSASLGDRVTISCRASQDISSYLNWYQQKPDGTIKLLIYYTSRLHSGVPSRFSGSGSGTDFSLTISNLEQEDIATYFCQQGNTLPYTFGGGTKLEIKR |  | no binding (tested: 1 µg/ml) |
| antibody 3.7D6 (antibody, V domains shown, Mouse mAb, cloned as murine IgG2a LALAPG; those versions are not written separately; also called PFD antibody 3.7D6) VH: QIQLVQSGPDLKKPGETVKISCRTSGYAFTNYGVNWVKQAPGKGLKWMGWINTNTGQTTYAEEFRGRFAISLETSASTAFLTISNLKNEDSATYFCARLIYDGDYISSDFWGQGTTLTVSS VL: DIQMTQSPDSLSASVGETVTITCGASENIYGALNWYQRKQGKSPQLLIYGATNLADGMSSRFSGSRSGRQYSLKISSLHPDDVATYYCQNALSMPYTFGGGTKLEIKR |  | no binding (tested: 1 µg/ml) |
| rabbit monoclonal antibody 5.17D12 (antibody, V domains shown, Rabbit mAb (Method #5), recombinant; also called rabmab 5.17D12) VH: QSLEESGGDLVKPGASLTLTCTASGFSFSSNYYMCWVRQAPGKGLEWIACVYVGSGGSTYYASWAKGRFTFSKTSSTTWTLQMTSLTAADTATYFCARDLSYAGDLWGPGTLVTVSS VL: DPVMTQTPASVSEPVGGTVTINCQASESISSYLAWYQQKPGQPPKLLIYGASNLASGVPSRFKGSGSGTEYTLTISDLECDDAATYYCQSAYYSNSGGHAFGGGTEVVVKG | binds | no binding (tested: 1 µg/ml) |
| antibody 3.1C1 (antibody, V domains shown, Mouse mAb, cloned as murine IgG2a LALAPG; not written separately; also called SRA-ID mAb 3.1C1) VH: QVQLQQSGPELVKPGASVRISCKASGYTFTNYFIHWVKQRPGQGLEWIGWINPGNLNTKYTEEFKGKATLTADKSSSTAYIQLNSLTSEDSAVYFCVNGNPFVYWGQGTLVTVSA VL: DIVMTQSPSSLTVIAGEKVTLNCKSSQSLLNSGNQKKYLTWLQQKPGQPPKLLIYWTSTRDSGVPDRFTGSGSGTDFTLTISSVQAEDLAVYYCQNDYSYPLTFGAGTKLEIKR | binds | no binding (tested: 1 µg/ml) |
| antibody 3.6E10 (antibody, V domains shown, Mouse mAb, cloned as murine IgG2a LALAPG) VH: QVQLQQSGAELAKPGASVKMSCKASGYIFTSYYLHWVKQRPGQGLEWIGYINPNTGYTEYTQNFKDRATLTADKSSSTAYMQLTSLTSEDSAVYFCVNGNPFVYWGQGTLVTVSA VL: DIVMTQSPSSLTVTTGEKVTMTCRSSQSLLNSGNQKNYLTWFQQKPGQPPKLLIYWTSTRYSGVPDRFTGSGSGTDFTLTISSVQAEDLAVYYCQNDYSYPLTFGAGTKLEIKR | binds | no binding (tested: 1 µg/ml) |
